Source: publication PMC7113277

Target: recombinant EBV LMP2A N-terminal cytoplasmic domain (LMP2A-NCD), His6-tagged (Epstein-Barr virus) (UniProt P13285)
Assay: SPR; BIAcore T200; LMP2A-NCD immobilised on Sensor Chip CM5; affibodies flowed at 2.5-20 μM; global fit, one-to-one Langmuir binding model

Chain of UniProt P13285 (P13285 1-119): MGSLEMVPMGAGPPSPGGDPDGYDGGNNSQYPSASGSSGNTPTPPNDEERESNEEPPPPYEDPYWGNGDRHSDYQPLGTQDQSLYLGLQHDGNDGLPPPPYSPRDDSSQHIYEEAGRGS

“ZWT affibody (wild SPA-Z scaffold) (designed binder)” was tested, and the koff was 5.96e-05 s⁻¹.
